From patent US7026443

Biological target: HLA-A*0301 (human)
Assay: not given

Binder	binding affinity ratio (IC50 of the standard peptide / IC50 of the test peptide)
NSNASAFLK (modifications not checked) [HPV16 E1 peptide … (position 386, 9 amino acids)]	0.0005
QMSMSQWIK (modifications not checked) [HPV16 E1 peptide … (position 419, 9 amino acids)]	0.0023

Biological target: HLA-A*0301 (human)
Assay: competition with 125I-labeled standard peptide for purified HLA, gel filtration

Binder	binding affinity ratio (IC50 of standard peptide / IC50 of test peptide)	relative binding ratio (IC50 of standard peptide / IC50 of test peptide)
GLSFTDLVR (modifications not checked) [HPV18 E1 position 223 peptide …]	0.0009	
SMSQWIKYR (modifications not checked) [HPV16 E1 peptide … (position 421, 9 amino acids)]		0.69
SLFGMSLMK (modifications not checked) [HPV16 E1 peptide … (position 484, 9 amino acids)]		0.72
GVLILALLR (modifications not checked) [HPV18 E1 position 279 peptide …]	0.0058	
LVSMDVKHR (modifications not checked) [HPV16 E1 peptide … (position 544, 9 amino acids)]		0.0005
LVRPFKSNK (modifications not checked) [HPV16 E1 peptide … (position 222, 9 amino acids)]		0.07
SVICFVNSK (modifications not checked) [HPV16 E1 peptide … (position 497, 9 amino acids)]		0.0005
FITFLGALK (modifications not checked) [HPV18 E1 position 460 peptide …]	0.032	
CATMCKHYR (modifications not checked) [HPV18 E1 position 412 peptide …]	0.0012	
MSFLTALKR (modifications not checked) [HPV16 E1 peptide … (position 454, 9 amino acids)]		0.087
ISLNSGQKK (modifications not checked) [HPV18 E1 position 116 peptide …]	0.0003	
NSNASAFLK (modifications not checked) [HPV16 E1 peptide … (position 386, 9 amino acids)]		0.0005
MMIEPPKLR (modifications not checked) [HPV16 E1 peptide … (position 305, 9 amino acids)]		0.001
TAAALYWYK (modifications not checked) [HPV16 E1 peptide … (position 315, 9 amino acids)]		0.78
RLKAICIEK (modifications not checked) [HPV16 E1 peptide … (position 109, 9 amino acids)]		0.084
IAQLKDLLK (modifications not checked) [HPV18 E1 position 198 peptide …]	0.0003	
QMSMSQWIK (modifications not checked) [HPV16 E1 peptide … (position 419, 9 amino acids)]		0.0023
TAQEAKQHR (modifications not checked) [HPV16 E1 peptide … (position 72, 9 amino acids)]		0.0005
ALLRYKCGK (modifications not checked) [HPV18 E1 position 284 peptide …]	0.09	

Biological target: HLA-A*1101 (human)
Assay: as above

Binder	binding affinity ratio (IC50 of standard peptide / IC50 of test peptide)	relative binding ratio (IC50 of standard peptide / IC50 of test peptide)
GLSFTDLVR (modifications not checked) [HPV18 E1 position 223 peptide …]	0.0025	
SMSQWIKYR (modifications not checked) [HPV16 E1 peptide … (position 421, 9 amino acids)]		0.028
SLFGMSLMK (modifications not checked) [HPV16 E1 peptide … (position 484, 9 amino acids)]		7.1
GVLILALLR (modifications not checked) [HPV18 E1 position 279 peptide …]	0.14	
LVSMDVKHR (modifications not checked) [HPV16 E1 peptide … (position 544, 9 amino acids)]		0.0089
LVRPFKSNK (modifications not checked) [HPV16 E1 peptide … (position 222, 9 amino acids)]		1.8
SVICFVNSK (modifications not checked) [HPV16 E1 peptide … (position 497, 9 amino acids)]		0.0002
FITFLGALK (modifications not checked) [HPV18 E1 position 460 peptide …]	0.037	
CATMCKHYR (modifications not checked) [HPV18 E1 position 412 peptide …]	0.011	
MSFLTALKR (modifications not checked) [HPV16 E1 peptide … (position 454, 9 amino acids)]		0.098
ISLNSGQKK (modifications not checked) [HPV18 E1 position 116 peptide …]	0.0026	
NSNASAFLK (modifications not checked) [HPV16 E1 peptide … (position 386, 9 amino acids)]		0.011
MMIEPPKLR (modifications not checked) [HPV16 E1 peptide … (position 305, 9 amino acids)]		0.0086
RLKAICIEK (modifications not checked) [HPV16 E1 peptide … (position 109, 9 amino acids)]		0.051
ATMCKHYRR (modifications not checked) [HPV18 E1 position 413 peptide …]	0.28	
IAQLKDLLK (modifications not checked) [HPV18 E1 position 198 peptide …]	0.0027	
QMSMSQWIK (modifications not checked) [HPV16 E1 peptide … (position 419, 9 amino acids)]		0.026
TAQEAKQHR (modifications not checked) [HPV16 E1 peptide … (position 72, 9 amino acids)]		0.0025
ALLRYKCGK (modifications not checked) [HPV18 E1 position 284 peptide …]	0.14	

Biological target: HLA-A*1101 (human)
Assay: competition with 125I-labelled standard peptide for purified HLA-A*1101, gel filtration

Binder	binding affinity ratio (IC50 of standard peptide / IC50 of test peptide)
GVLILALLR (modifications not checked) [HPV18 E1 position 279 peptide …]	0.14
ISLNSGQKK (modifications not checked) [HPV18 E1 position 116 peptide …]	0.0026

Biological target: HLA-A*0301 (human)
Assay: not given
Remark: another data set of the same source

Binder	binding affinity ratio (IC50 of standard peptide / IC50 of test peptide)	relative binding ratio (IC50 of standard peptide / IC50 of test peptide) (ratio to standard peptide)	relative binding ratio (IC50 of standard peptide / IC50 of test peptide)
LVRNFKSDK (modifications not checked) [HPV18 E1 position 229 peptide …]	0.0005		
LLVRYKCGK (modifications not checked) [HPV16 E1 peptide … (position 277, 9 amino acids)]	0.0043		
FLKSNSQAK (modifications not checked) [HPV31 E1 peptide … (position 372, 9 amino acids)]		0.0013	
NSNAAAFLK (modifications not checked) [HPV18 E1 position 393 peptide …]	0.0057		
MLIQPPKLR (modifications not checked) [HPV18 E1 position 312 peptide …]	0.0005		
NMSQWIRFR (modifications not checked) [HPV18 E1 position 428 peptide …]	0.054		
FLKSNSQAK (modifications not checked) [HPV33 E1 385 peptide … (A03 supermotif peptide, 9 amino acids)]			0.0013
QMNMSQWIR (modifications not checked) [HPV18 E1 position 426 peptide …]	0.0011		
GVSFSELVR (modifications not checked) [HPV16 E1 peptide … (position 216, 9 amino acids)]	0.0011		

Biological target: HLA-A*1101 (human)
Assay: not given

Binder	binding affinity ratio (IC50 of standard peptide / IC50 of test peptide)
LVRNFKSDK (modifications not checked) [HPV18 E1 position 229 peptide …]	0.0002
LLVRYKCGK (modifications not checked) [HPV16 E1 peptide … (position 277, 9 amino acids)]	0.0033
NSNAAAFLK (modifications not checked) [HPV18 E1 position 393 peptide …]	0.37
MLIQPPKLR (modifications not checked) [HPV18 E1 position 312 peptide …]	0.0014
NMSQWIRFR (modifications not checked) [HPV18 E1 position 428 peptide …]	0.0012
QMNMSQWIR (modifications not checked) [HPV18 E1 position 426 peptide …]	0.0023
GVSFSELVR (modifications not checked) [HPV16 E1 peptide … (position 216, 9 amino acids)]	0.018

Biological target: HLA-A*1101 (human)
Assay: not given
Remark: another data set of the same source

Binder	binding affinity ratio (IC50 of standard peptide / IC50 of test peptide)
GLSFTDLVR (modifications not checked) [HPV18 E1 position 223 peptide …]	0.0025
IAQLKDLLK (modifications not checked) [HPV18 E1 position 198 peptide …]	0.0027

Biological target: HLA-A*0201 (human)
Assay: competition with 125I-labelled standard peptide for purified HLA-A*0201, gel filtration

Binder	binding affinity ratio (IC50 of the standard peptide / IC50 of the test peptide)	relative binding ratio (IC50 of standard peptide / IC50 of test peptide)
ELNTSLQDI (modifications not checked) [HPV18 E6 20 …]	0.0001	
CTFELSQMV (modifications not checked) [HPV16 E1 … (position 353)]		0.0029
CMCCKCEARI (modifications not checked) [HPV18 E7 peptide … (position 63)]		0.002
DLRAFQQL (modifications not checked) [HPV18 E7 peptide DLRAFQQL (position 82)]		0.0001
PLNPAEKL (modifications not checked) [HPV18 E6 peptide PLNPAEKL (position 111)]		0.0001
GLTPSIADSI (modifications not checked) [HPV16 E1 242 peptide …]		0.0002
EIDGVNHQHL (modifications not checked) [HPV18 E7 peptide … (position 40)]		0.0001
ELRHYSDSV (modifications not checked) [HPV18 E6 peptide … (position 77)]		0.0003
KLTNTGLYNLL (modifications not checked)		0.0043
GAANTGKSL (modifications not checked) [HPV16 E1 477 peptide …]		0.0003
IAAFGLTPSI (modifications not checked) [HPV16 E1 238 peptide …]		0.0002
KLTNTGLYNL (modifications not checked)		0.0048
TVLELTEV (modifications not checked) [HPV18 E6 peptide TVLELTEV (position 37)]		0.001
FLQGSVICFV (modifications not checked) [HPV16 E1 493 peptide …]		0.23
RLQRRRETQV (modifications not checked) [HPV18 E6 peptide … (position 149)]		0.0001
DLRAFQQLFL (modifications not checked) [HPV18 E7 peptide … (position 82)]		0.001
SVYGDTLEKL (modifications not checked) [HPV18 E6 peptide … (position 84)]		0.0028
GTGCNGWFYV (modifications not checked) [HPV16 E1 12 peptide …]		0.0006
NTSLQDIEIT (modifications not checked) [HPV18 E6 peptide … (position 22)]		0.0001
AAFGLTPSI (modifications not checked) [HPV16 E1 … (position 239)]		0.0012
CMCCKCEA (modifications not checked) [HPV18 E7 peptide CMCCKCEA (position 63)]		0.0005
SLQDIEITCV (modifications not checked) [HPV18 E6 peptide … (position 24)]		0.025
